Source: PMC4897735, “Acousto-microfluidics for screening of ssDNA aptamer”

Target: prostate-specific antigen (PSA) (UniProt P07288 25-261)
Test: SPR; AS2 3-50 nM, 2 mM MgCl2; SPR (Biacore CM5): PBS pH 7.4, 2 mM MgCl2 (PBSM), 25 °C, 15 µl/min, blank flow cell reference
Conditions: protein: commercial

prostate-specific antigen (PSA), sequence (P07288 25-261): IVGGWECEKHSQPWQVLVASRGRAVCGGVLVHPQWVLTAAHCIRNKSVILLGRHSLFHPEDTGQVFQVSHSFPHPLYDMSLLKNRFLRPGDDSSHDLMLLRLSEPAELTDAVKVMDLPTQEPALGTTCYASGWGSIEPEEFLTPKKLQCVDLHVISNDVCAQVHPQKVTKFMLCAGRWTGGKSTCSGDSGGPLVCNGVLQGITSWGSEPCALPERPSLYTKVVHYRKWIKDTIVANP

## GGGCGGGGCGGACGAGACAGTAAGGGCTGTGGGTGTGGTG (ssDNA) [AS2]
  Kd: 0.7 nM
